Data on 3 molecules can be found in US20210062263A1, “A CLINICAL […]” (priority 2016, published 2021).

Entries after “also recorded” stand apart in the source; their conditions may differ.

Type in all cases: cell-based, human
In series [1] the test system is keloid fibroblasts. Kind of series: qRT-PCR relative gene expression in keloid fibroblasts. Here is the method: (§1) Normal and keloid tissue samples were collected from 11 patients and were used to establish primary fibroblast cultures. Using these fibroblasts, qRT-PCR for relative gene expressions and enzyme-linked immunosorbent assay (ELISA) for relative protein expressions were performed. Fibroblasts were also treated with 200 pM activin for 24 hours to examine the effects on fibrosis-related genes.
(§2) Normal and keloid tissue samples were collected from 11 patients and used to establish primary fibroblast cell cultures as described in Example 1. Relative expressions of fibrosis-related genes were examined using qRT-PCR. Protein levels of activin and follistatin, an activin-antagonist, were also measured by ELISA and radioimmunoassay in lysates of dermal fibroblasts. Furthermore, keloid fibroblasts were treated with 1 nM follistatin for 24 hours to examine the effects on fibrosis-related genes.
(§3) Normal and keloid fibroblasts were isolated and cultured from a patient. Relative expressions of fibrosis-related genes were examined using qRT-PCR. Protein levels of activin and follistatin were also measured by ELISA and radioimmunoassay in dermal fibroblasts as described in Example 2. Furthermore, keloid fibroblasts were daily treated with 1 nM follistatin for 1, 3 and 5 days to examine the effects on fibrosis-related genes.
(§4) Normal and keloid fibroblasts were isolated and cultured in vitro using standard fibroblast cell culture protocols. Relative gene expressions were examined using qRT-PCR. Protein levels of activin and follistatin were also measured in dermal fibroblasts by enzyme-linked immunosorbent assay and radioimmunoassay respectively. Cells were also treated with 100 ng/ml follistatin for 5 days to examine the effects on the expression of fibrosis-related genes.
(§5) The upregulation of CTGF by activin A was also confirmed in the multiple patient samples (FIG. 8n).
(§6) To investigate the role of AP1 in keloid pathogenesis, fibroblasts were treated for 3 days with SR11302, an inhibitor of AP1 activity. […] Moreover, in order to examine the effects of FST288, fibroblasts were treated for 3 days or 5 days.

Series [2] deals with normal fibroblasts. Kind of series: Activin A protein in cell lysate and media of normal fibroblasts. The settings on record: after treatment with AP1 inhibitor. Here is the method: as §1, §4, §6
In series [3] the test system is keloid fibroblasts. Kind of series: Activin A protein in cell lysate and media of keloid fibroblasts. The settings on record: after treatment with AP1 inhibitor. Here is the method:
as §1, §4, §6

In series [4] the test system is normal fibroblasts. Kind of series: qRT-PCR relative gene expression in normal fibroblasts. As for the experimental part:
as §1, §2, §3, §4, §5, §6
On the technique in general: Real-time PCR tracks product formation cycle by cycle.

Series [5] deals with normal fibroblasts. Kind of series: Tolerance of normal fibroblasts in culture (cell death). The settings on record: 3 days. Here is the method:
as §6

The subject of series [6] is keloid fibroblasts. Kind of series: Tolerance of keloid fibroblasts in culture (cell death). The settings on record: 3 days. As for the experimental part: as §6
Series [7] deals with keloid fibroblasts. Briefly: RNA sequencing of keloid fibroblast cultures with/without follistatin. The settings on record: single follistatin treatment. As for the experimental part: RNAseq was performed with/without a single follistatin treatment on normal and keloid fibroblast cultures on day 1 and day 5 (FIG. 7) to compare the extent of gene expression changes in keloid disease.

Setting [8] is: SR11302 10 uM and 15 uM, 3 days.
The mark [9] stands for this setting: daily 1 nM follistatin, five days.

Consider `CC1=C(/C=C/C(=C/C=C/C(C)=C/C(=O)O)c2ccc(C)cc2)C(C)(C)CCC1` [SR11302], for which the CTGF gene expression entry in series [1] (setting [8]) and in series [4] (setting [8]) was “significantly decreased” in each case. The INHBA gene expression entry in series [1] (setting [8]) and in series [4] (setting [8]) was “significantly decreased” throughout. Further, the “activin A protein in cell lysate and media” value in series [2] and in series [3] was “significantly decreased” in each case. Moreover, the “doses resulting in cell death” value in series [5] and in series [6] was “higher than 20 uM” in each case.

B1: follistatin: an activin-antagonist protein; isoform not stated in these examples (protein, UniProt P19883 30-344, looked up)
Follistatin: GNCWLRQAKNGRCQVLYKTELSKEECCSTGRLSTSWTEEDVNDNTLFKWMIFNGGAPNCIPCKETCENVDCGPGKKCRMNKKNKPRCVCAPDCSNITWKGPVCGLDGKTYRNECALLKARCKEQPELEVQYQGRCKKTCRDVFCPGSSTCVVDQTNNAYCVTCNRICPEPASSEQYLCGNDGVTYSSACHLRKATCLLGRSIGLAYEGKCIKAKSCEDIQCTGGKKCLWDFKVGRGRCSLCDELCPDSKSDEPVCASDNATYASECAMKEAACSSGVLLEVKHSGSCNSISEDTEEEEEDEDQDYSFPISSILEW
With B1, in series [1] (1 nM follistatin, 24 hours), the CTGF gene expression result is recorded as “significantly decreased” and the “activin A gene expression” value is recorded as “significantly decreased”. In series [1] (100 ng/ml follistatin, vs controls), the “CTGF (downstream target of activins) expression” value is “declined significantly”. The “activin A expression of the gene and its protein” value in series [1] (after treatment with follistatin (summary of Examples 1 to 3)) was “significant downregulation”. Further, in series [1] (setting [9]), the CTGF gene expression entry is listed as “significantly decreased” and the “activin A gene expression” value is reported as “significantly decreased”. Also, in series [1] (single treatment, 100 ng/ml follistatin), the “activin A gene expression” value is given as “significantly decreased”. The “INHBA expression (RNAseq)” value in series [7] (5 days, 100 ng/ml) is “diminished”. In series [7] (day 5, 100 ng/ml), the “CTGF expression (RNAseq)” value is “significantly decreased”, the “PAI1 expression (RNAseq)” value is on record as “significantly decreased” and the “other matrix related genes (RNAseq)” value was “downregulated”.

B2: activin A: dimeric protein of the TGF-β superfamily, added exogenously at 200 pM (protein, UniProt P08476 311-426, looked up)
Inhibin beta A chain: GLECDGKVNICCKKQFFVSFKDIGWNDWIIAPSGYHANYCEGECPSHIAGTSGSSLSFHSTVINHYRMRGHSPFANLKSCCVPTKLRPMSMLYYDDGQNIIKKDIQNMIVEECGCS
modifications: Inhibin beta A chain homodimer
notes: dimeric protein of the TGF-β superfamily, added exogenously at 200 pM
As for B2, in series [1] (200 pM activin A, 24 hours), the CTGF gene expression result was “significantly upregulated”, the FOSB gene expression result is “significantly upregulated”, the IL6 gene expression entry is “significantly upregulated” and the “INHBA (activin A) gene expression” value was “further significant upregulation; also recorded: significantly upregulated”. Further, in series [1] (200 pM activin A, 24 hours), the JUNB gene expression entry was “significantly upregulated”, the PAI1 gene expression entry is given as “significantly upregulated” and the TGFB2 gene expression result is given as “significantly upregulated”. The “CTGF expression in fibroblasts from multiple patients” value in series [1] (200 pM activin A, multiple patient samples (normal/keloid not distinguished)) is given as “upregulation; also recorded: increased”. Besides, in series [4] (200 pM activin A, 24 hours), the CTGF gene expression result is “significantly upregulated”, the FOSB gene expression entry is reported as “significantly upregulated”, the IL6 gene expression entry is reported as “significantly upregulated” and the “INHBA (activin A) gene expression” value is recorded as “significantly upregulated”. Moreover, in series [4] (200 pM activin A, 24 hours), the JUNB gene expression result is on record as “significantly upregulated”, the PAI1 gene expression entry is given as “significantly upregulated” and the TGFB2 gene expression result was “significantly upregulated”.
